For two variants, response results are on record in article PMC7496328.

B1: unnamed (parent)
chain: MFGLGHNSKEISMSHIGTKFILAEKFTFDPLSNTLIDKEDSEEIIRLGSNESRILWLLAQRPNEVISRNDLHDFVWREQGFEVDDSSLTQAISTLRKMLKDSTKSPQYVKTVPKRGYQLIARVETVEEEMARESEAAHDISQPESVNEYAESSSVPSSATVVNTPQPANVVTNKSAPNLGNRLLILIAVLLPLAVLLLTNPSQTSFKPLTVVDGVAVNMPNNHPDLSNWLPSIELCVKKYNEKHTGGLKPIEVIATGGQNNQLTLNYIHSPEVSGENITLRIVANPNDAIKVCE

Variants of B1 are the subject of this test. The following applies: with partner chain of the complex shown; read off a plot.
For the variant chain 1 C293S W76R, the response was 5%. Under chain 1 C293S stands 45%.
